Measured values reported in the supplement of paper PMC10567573.

B1: DVL3 (parent)
chain: FPELGYSYGGGSASSQHSEGSRSS
B2: PRKX (parent)
chain: KLLVVDRTRRLGNMKNGANDVKHH

Variants of: B1
Assay: protein stability index of a GFP-peptide fusion (GPS, HEK-293T) (PSI 1-6); higher = more stable
Conditions: c terminus: a fixed tail appended
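Also: lentivirally expressed fusions sorted by FACS into six bins by GFP to DsRed ratio, PSI derived from sequencing read proportions per bin multiplied by bin number.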

Protein stability index of substitutions, site by site:
Y6: H 3.77, S 3.98, C 3.4, N 4.58, G 3.81, W 1.66, T 3.7, F 2.32, V 3.75, D 5.2, Q 4.3, K 3.37, E 4.76, R 3.5, M 3.71, A 3.87, L 3.53, I 3.77, P 3.76
G5: F 2.33, I 2.93, W 1.61, C 3.52, Y 2.5, E 4.81, M 3.31, D 4.59, K 3.98, S 3.52, A 2.91, Q 4.39, P 2.58, T 3.96, R 3.58, H 3.08, V 3.64, L 3.18, N 3.96
S7: P 2.7, R 2.18, Q 3.22, I 2.04, A 2.12, D 4.89, T 2.36, C 1.84, N 3.55, G 2.5, W 1.74, F 2.72, H 2.4, E 3.68, V 2.42, K 3.21, L 2.26, M 2.65, Y 2.19
E3: Q 3.16, I 3.59, W 2.99, P 2.96, C 2.76, R 3.41, F 2.93, A 3.43, H 2.58, Y 2.61, N 2.63, S 1.59, G 2.12, T 2.19, K 2.62, D 2.67, L 3.87, V 3.75, M 3.5
Y8: H 3.43, I 2.58, F 2.59, D 4.75, E 4.71, G 3.8, A 3.72, L 3.09, C 2.74, K 2.95
P2: C 1.99, I 2.07, L 2.86, W 3.2, G 3.12, K 4.49, D 5.09, H 2.1, Q 3.02, V 4.01, M 3.96, E 4.66, T 2.38, S 3.34, F 3.37, R 4.09, N 4.26, A 2.87, Y 3.1
F1: E 5.18, I 5.21, L 4.22, M 4.38, T 4.95, V 4.03, K 4.89, N 5.32, S 4.99, A 5.09, C 4.68, W 4.25, G 4.62, P 5.34, Y 4, H 4.96, R 4.86, Q 5.03, D 5.2
L4: C 2.82, V 3.36, N 2.35, Q 3.35, I 3.25, E 4.31, D 4.52, W 1.76, M 2.09, F 3.16, H 3.33, Y 2.57, T 3.77, K 2.98, S 2.62, P 3.24, G 1.8, R 2.84, A 3.47

Variants of: B2
Assay: as above
Conditions: c terminus: a fixed tail appended

Protein stability index, by site and new letter:
H24: G 2.75, C 3, D 3.4, W 2.76, E 3.96, M 2.63, N 2.81, S 3.48, P 2.91, R 3.1, V 2.65, I 2.23, Q 3.01, F 2.36, Y 2.46, T 3.25, K 3, L 2.11, A 3.61
H23: W 3.4, V 2.96, T 3.18, S 2.73, Y 2.35
